Literature values in PMC8780439.
pKd: −log10 of the molar value.

Tests used:
[1] = molecular target: Synaptotagmin I (Homo sapiens) (UniProt P21579)
[2] = molecular target: Synaptotagmin II (Homo sapiens) (UniProt Q8N9I0)
[3] = molecular target: Synaptotagmin II (Mus musculus) (UniProt P46097)
Chain of UniProt P46097 (P46097 whole entry): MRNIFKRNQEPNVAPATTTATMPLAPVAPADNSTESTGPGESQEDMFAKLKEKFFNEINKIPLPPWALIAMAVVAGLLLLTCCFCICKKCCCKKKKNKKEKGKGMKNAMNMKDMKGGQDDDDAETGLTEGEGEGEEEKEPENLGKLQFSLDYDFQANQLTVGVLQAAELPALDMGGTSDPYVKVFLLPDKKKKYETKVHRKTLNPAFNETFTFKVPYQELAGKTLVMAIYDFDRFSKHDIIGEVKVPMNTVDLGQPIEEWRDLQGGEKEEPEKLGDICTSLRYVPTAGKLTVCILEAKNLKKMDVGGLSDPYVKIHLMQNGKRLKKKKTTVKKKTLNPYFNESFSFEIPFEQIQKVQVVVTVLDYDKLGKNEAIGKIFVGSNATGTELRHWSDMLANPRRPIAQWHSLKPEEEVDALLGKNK

Chain of UniProt Q8N9I0 (Q8N9I0 whole entry): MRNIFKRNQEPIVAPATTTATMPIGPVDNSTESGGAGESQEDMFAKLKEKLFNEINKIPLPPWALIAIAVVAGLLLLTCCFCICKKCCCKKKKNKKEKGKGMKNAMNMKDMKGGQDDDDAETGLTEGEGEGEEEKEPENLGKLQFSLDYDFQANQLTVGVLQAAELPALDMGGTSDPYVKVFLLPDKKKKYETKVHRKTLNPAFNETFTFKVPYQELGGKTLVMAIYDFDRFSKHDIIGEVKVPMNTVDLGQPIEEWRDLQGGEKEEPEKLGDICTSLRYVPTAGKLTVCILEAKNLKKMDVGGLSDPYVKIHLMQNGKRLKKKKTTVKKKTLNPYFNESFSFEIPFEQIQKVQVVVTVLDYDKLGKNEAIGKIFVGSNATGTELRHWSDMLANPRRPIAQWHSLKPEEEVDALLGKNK
Chain of UniProt P21579 (P21579 whole entry): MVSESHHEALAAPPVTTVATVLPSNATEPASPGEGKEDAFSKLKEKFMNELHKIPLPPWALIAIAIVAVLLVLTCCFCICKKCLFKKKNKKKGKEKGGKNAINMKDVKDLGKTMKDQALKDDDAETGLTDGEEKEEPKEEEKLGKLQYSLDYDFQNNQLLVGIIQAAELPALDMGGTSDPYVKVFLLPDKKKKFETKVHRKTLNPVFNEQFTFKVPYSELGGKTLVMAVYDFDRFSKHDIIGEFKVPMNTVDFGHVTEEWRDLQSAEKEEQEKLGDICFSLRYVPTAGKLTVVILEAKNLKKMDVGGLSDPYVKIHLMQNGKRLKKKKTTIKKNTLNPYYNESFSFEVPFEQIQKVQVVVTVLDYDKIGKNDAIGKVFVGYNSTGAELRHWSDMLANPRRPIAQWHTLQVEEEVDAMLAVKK

Substance	pKd [1]	pKd [2]	pKd [3]
BoNT/B (from UniProt P10844)	< 4.70	–	–
BoNT/B heavy chain (from UniProt B1INP5)	–	< 4.70	6.89
